Experimental data from FireProtDB (doi:10.1110/ps.8.4.832).

Settings: Aspergillus oryzae (strain ATCC 42149 / RIB 40), Thermal, whole UniProt chain shown
[1] = pH 1.1, DSC, glycine-HCl 0.1 M/0.1 M, NaCl 0.1 M, reversible: yes(77%)
[2] = pH 1.5, DSC, glycine-HCl 0.1 M/0.1 M, NaCl 0.1 M, reversible: yes(99%)
[3] = pH 2, DSC, glycine-HCl 0.1 M/0.1 M, NaCl 0.1 M, reversible: yes(80%)
[4] = pH 3, DSC, glycine-HCl 0.1 M/0.1 M, NaCl 0.1 M, reversible: yes(80%)
[5] = pH 7, DSC, None, reversible: yes(26%)

B1: Guanyl-specific ribonuclease T1 wild type, P00651 (protein)
chain: MMYSKLLTLTTLLLPTALALPSLVERACDYTCGSNCYSSSDVSTAQAAGYQLHEDGETVGSNSYPHKYNNYEGFDFSVSSPYYEWPILSSGDVYSGGSPGADRVVFNENNQLAGVITHTGASGNNFVECT
With B1 the Tm (pH 1.1, Absorbance, glycine-HCl 0.1 M/0.1 M, NaCl 0.1 M, reversible: yes(77%)) was 25.9 °C, the Tm [1] was 28.2 °C and the “unfolding enthalpy (calorimetric)” value [1] was 43.3 kcal/mol. For the same protein, the “unfolding enthalpy (van 't Hoff)” value [1] was 55.7 kcal/mol, the Tm [2] was 32.3 °C and the “unfolding enthalpy (calorimetric)” value [2] was 47.6 kcal/mol. For the same protein, the “unfolding enthalpy (van 't Hoff)” value [2] was 60.5 kcal/mol, the Tm (pH 2, Absorbance, glycine-HCl 0.1 M/0.1 M, NaCl 0.1 M, reversible: yes(80%)) was 33 °C and the Tm [3] was 37 °C. The “unfolding enthalpy (calorimetric)” value [3] was 68.9 kcal/mol, the “unfolding enthalpy (van 't Hoff)” value [3] was 66.3 kcal/mol and the Tm (pH 3, Absorbance, glycine-HCl 0.1 M/0.1 M, NaCl 0.1 M, reversible: yes(80%)) was 46.1 °C. The Tm [4] was 50.2 °C, the “unfolding enthalpy (calorimetric)” value [4] was 95.7 kcal/mol and the “unfolding enthalpy (van 't Hoff)” value [4] was 93.1 kcal/mol. It also gave a Tm (pH 3.5, Absorbance, glycine-HCl 0.1 M/0.1 M, NaCl 0.1 M, reversible: yes(73%)) of 52.7 °C, a Tm (pH 7, Absorbance, None, reversible: yes(26%)) of 62.8 °C and a Tm [5] of 64.4 °C. The “unfolding enthalpy (calorimetric)” value [5] was 123 kcal/mol and the “unfolding enthalpy (van 't Hoff)” value [5] was 116 kcal/mol.
